Measured values reported in US20090123934A1 (published 2009).
Residue numbers refer to the chain shown, from its start.

Key:
[1] = molecular target: wildtype PoloBD-fusion protein (Drosophila melanogaster) (UniProt P52304); assay: yeast two-hybrid, serial dilutions
HA-Polo = molecular target: T1, HA-Polo (Drosophila melanogaster, UniProt P52304 1-576); assay: purified Flag-Mtrm incubated with HA-Polo, immunoprecipitated with anti-Mtrm antibody, anti-HA Western blot (FIG. 18)
T1 construct: Expressed with baculovirus in Sf9 cells; also called Polo with a 2XHA tag at the N-terminus; not shown: N-terminal 2XHA tag
T1 sequence (looked up): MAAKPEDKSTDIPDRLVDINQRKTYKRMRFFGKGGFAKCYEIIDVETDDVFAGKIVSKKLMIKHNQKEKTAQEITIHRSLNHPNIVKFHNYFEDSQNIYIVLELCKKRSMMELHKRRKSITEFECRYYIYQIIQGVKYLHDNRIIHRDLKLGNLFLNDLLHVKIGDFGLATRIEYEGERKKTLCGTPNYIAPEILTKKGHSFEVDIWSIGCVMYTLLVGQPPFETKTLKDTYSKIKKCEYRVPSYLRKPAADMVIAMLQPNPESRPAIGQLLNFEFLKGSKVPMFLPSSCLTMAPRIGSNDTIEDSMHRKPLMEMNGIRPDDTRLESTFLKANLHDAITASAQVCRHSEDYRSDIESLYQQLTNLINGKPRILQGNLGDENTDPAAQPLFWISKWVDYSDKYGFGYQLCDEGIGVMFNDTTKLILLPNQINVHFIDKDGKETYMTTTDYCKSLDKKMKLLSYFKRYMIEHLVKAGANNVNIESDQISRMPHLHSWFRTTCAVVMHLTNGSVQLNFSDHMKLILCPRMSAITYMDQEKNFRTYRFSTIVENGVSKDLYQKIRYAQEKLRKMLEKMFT
Protocol: Protein from affinity-purified Flag-Mtrm and HA-Polo was used for an in vitro binding experiment. 50 μg Flag-Mtrm was mixed with the same amount of HA-Polo in 60 μl of the above buffer and incubated for 1 hr at 30° C. As a control, 50 μg HA-Polo in 60 μl was also incubated. After incubation, both protein samples were immunoprecipitated using 50 μl protein A agarose beads coated with anti-Mtrm antibody (from guinea pig) for 1 hr at 4° C. The agarose beads were washed 6 times with the above protein buffer.
For Western blotting, the beads were suspended in 40 μl of SDS loading buffer (50 mM Tris-HCl (pH 6.8), 100 mM DTT, 2% SDS, 0.1% bromophenol blue, 10% glycerol) and heated for 3 min at 95° C. before being loaded on a PAGE gel. Western blotting for HA-Polo was conducted using anti-HA antibody from mouse and an Alkaline Phosphatase chromogen kit (BCIP/NBT) (Roche). (FIG. 18).

Polo kinase (Polo) [2] = molecular target: T2, Polo kinase (Polo) (Drosophila melanogaster, UniProt P52304 1-576, T182 detected as phosphorylated (over 80%) in Polo bound to Mtrm); assay: anti-FLAG affinity purification from ovarian extracts, MudPIT mass spectrometry, three replicates
T2 construct: Endogenous Polo in ovary extracts; also called polo (FBgn0003124)
T2 sequence (looked up): T1 sequence (looked up)
Description: We analyzed three independent affinity purifications from ovarian extracts expressing a C-terminally 3×FLAG-tagged Mtrm and used MudPIT mass spectrometry to identify interacting proteins. We then compared the identified proteins to those detected in five control FLAG immuno-precipitations from control (w¹¹¹⁸) flies.
In order to prepare a C-terminally 3×FLAG-tagged Mtrm for the MudPIT mass spectrometry assay, the UASP-mtrm-Flag (3×) construct was expressed in ovaries under the control of the nanos-GAL4 driver in a wild-type background. The extraction of protein from the ovaries was the same as described above. 100 μl of anti-FLAG beads were washed 2 times with pre-chilled 1×PBS and then 2 times with pre-chilled ovary extract buffer. The anti-FLAG beads were mixed with the extract supernatant, incubated and washed as described above. After washing, the beads bound with Mtrm-FLAG (3×) were finally transferred to a mini-column and washed with 25 ml of TBS (50 mM Tris-HCl, pH 7.4, 150 mM NaCl) at 4° C. When washing was completed, 300 μl TBS with 100 μg/ml 3×FLAG peptide was added to elute proteins. TCA was added to the eluted protein solution at a final concentration of 20%. The solution was mixed and kept on ice for at least 30 minutes. The solution was centrifuged at 14000 rpm at 4° C. for 15 minutes. […] The pellet was air dried and ready for the Mud PIT spectrometry analysis.

Polo kinase (Polo) [3] = molecular target: T2, Polo kinase (Polo); assay: co-immunoprecipitation, ovary extracts
Protocol: To prepare the ovary extract for immunoprecipitation, ovaries from 100 yeast-fed female flies were dissected in 1×PBS. The ovaries were homogenized in an Eppendorf tube at 4° C. by a small pestle in 0.5 ml of ovary extract buffer containing 25 mM Hepes (pH 6.8), 50 mM KCl, 1 mM MgCl₂, 1 mM DTT and 125 mM sucrose with protease inhibitors cocktail (Calbiochem). The extract was centrifuged at 14000×g for 15 minutes at 4° C. and the supernatant was collected.
Protein A agarose beads were used for binding polyclonal antibodies from rabbit and guinea pig. Protein G agarose beads were used for binding monoclonal antibody from mouse. 50 ul of protein A or G-coated agarose was washed three times with PBST (PBS+0.1% Triton X-100). 10 ul of antibody was added to the beads in a final volume of 500 ul of PBS and mixed on a shaker for 1 hour at 4° C. The beads then were washed twice with PBST. The ovary extract was immunoprecipitated with the beads for 1 hour at 4° C. with continual shaking. After recovery by centrifugation at 1000×g for 3 minutes, the beads were washed 4 times with the cold ovary extract buffer with protease inhibitors, for 5 minutes each. For Western blotting, the beads were suspended in 30 μl of SDS loading buffer (50 mM Tris-HCl (pH 6.8), 100 mM DTT, 2% SDS, 0.1% bromophenol blue, 10% glycerol) and heated for 3 minutes at 95° C. before being loaded on a PAGE gel. […]

## MtrmT(40)A mutant MtrmAD-fusion protein (from UniProt Q23973 1-217)
[1]
  colonies at the third serial dilution: 1 colonies
  colonies following the first serial dilution: 7 colonies

B1: Flag-Mtrm (other)
chain: MENSRTPTNKTKITLNRTPTLKERRWNTLKVNTSNVRCSTPIFGNFRSPNLSPIENMGTKGKSPVSPMRFATFKKVPTKVHPKQQQQQQHQHCHRTQLKPPPFVLPKPQEEIIEPEREIKSCSSPDTCSDDSNMETSLALESRRRSIKASNHSYVVNHAANVEQILMHMGLENYVTNFEEAHIDLVELASLERADLVKIGLNTDEDCNRIMDVLHTL
notes: Expressed with baculovirus in Sf9 cells; also called Mtrm with a Flag tag at the N-terminus; not shown: N-terminal Flag tag
HA-Polo
  binding result: binds

B2: C-terminally 3×FLAG-tagged Mtrm (other)
chain: B1 chain
modifications: phosphorylation detected on T40, S124 (less reproducibly), S48, S52 and S137
notes: Expressed in ovaries under nanos-GAL4 in a wild-type background; purified on anti-FLAG beads for MudPIT; also called Mtrm-Flag(3×); Mtrm-FLAG (3×); not shown: C-terminal 3×FLAG tag
Polo kinase (Polo) [2]
  ratio between the two proteins (NSAF): 0.96 ratio of NSAF values

B3: Mtrm with both PBD binding sites mutated (T(40)A and S(124)A) (other)
chain: B1 chain with T40A, S124A
Polo kinase (Polo) [3]
  binding result: no binding
